# ± gives the standard deviation of the averaged measurements.
# What was measured:
# MCF7 = experiment: percentage of EdU-negative (G0-arrested) nuclei per well, 72 h; higher = more G0 arrest; details: reference: sequence is the full UniProt precursor, the tested protein was the secreted form or ectodomain
# hTERT-HMEC = experiment: as above; details: reference: sequence is the full UniProt precursor, the tested protein was the secreted form or ectodomain
# [1] = protein concentration 0.0357143 µM
# [2] = protein concentration 0.357143 µM
# [3] = protein concentration 0.03125 µM
# [4] = protein concentration 0.3125 µM
# [5] = protein concentration 0.023405 µM
# [6] = protein concentration 0.23405 µM
# [7] = protein concentration 0.0143975 µM
# [8] = protein concentration 0.0290625 µM
# [9] = protein concentration 0.143975 µM
# [10] = protein concentration 0.290625 µM
# 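Note: secreted proteins added to cultured cells, EdU pulse at the end, nuclei found by Hoechst imaging, EdU status from nuclear versus surrounding ring intensity ratio, PBS as neutral control.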
substance,measurement,setting,value
MNPTLILAAFCLGIASATLTFDHSLEAQWTKWKAMHNRLYGMNEEGWRRAVWEKNMKMIELHNQEYREGKHSFTMAMNAFGDMTSEEFRQVMNGFQNRKPRKGKVFQEPLFYEAPRSVDWREKGYVTPVKNQGQCGSCWAFSATGALEGQMFRKTGRLISLSEQNLVDCSGPQGNEGCNGGLMDYAFQYVQDNGGLDSEESYPYEATEESCKYNPKYSVANDTGFVDIPKQEKALMKAVATVGPISVAIDAGHESFLFYKEGIYFEPDCSSEDMDHGVLVVGYGFESTESDNNKYWLVKNSWGEEWGMGGYVKMAKDRRNHCGIASAASYPTV,percentage of EdU-negative,MCF7; [1],27.8 ± 1.3%
same,percentage of EdU-negative,MCF7; [2],24 ± 1.1%
same,percentage of EdU-negative,hTERT-HMEC; [1],4.81 ± 0.59%
same,percentage of EdU-negative,hTERT-HMEC; [2],5.42 ± 0.42%
MGFQKFSPFLALSILVLLQAGSLHAAPFRSALESSPADPATLSEDEARLLLAALVQDYVQMKASELEQEQEREGSSLDSPRSKRCGNLSTCMLGTYTQDFNKFHTFPQTAIGVGAPGKKRDMSSDLERDHRPHVSMPQNAN,percentage of EdU-negative,MCF7; [3],26.7 ± 2.5%
same,percentage of EdU-negative,MCF7; [4],25.55 ± 0.19%
same,percentage of EdU-negative,hTERT-HMEC; [3],5.19 ± 0.42%
same,percentage of EdU-negative,hTERT-HMEC; [4],5.1 ± 0.19%
Q9HBE5,percentage of EdU-negative,MCF7; [1],24.6 ± 3%
same,percentage of EdU-negative,MCF7; [2],26.38 ± 0.26%
same,percentage of EdU-negative,hTERT-HMEC; [1],4.85 ± 0.64%
same,percentage of EdU-negative,hTERT-HMEC; [2],5.88 ± 0.38%
MKTPWKVLLGLLGAAALVTIITVPVVLLNKGTDDATADSRKTYTLTDYLKNTYRLKLYSLRWISDHEYLYKQENNILVFNAEYGNSSVFLENSTFDEFGHSINDYSISPDGQFILLEYNYVKQWRHSYTASYDIYDLNKRQLITEERIPNNTQWVTWSPVGHKLAYVWNNDIYVKIEPNLPSYRITWTGKEDIIYNGITDWVYEEEVFSAYSALWWSPNGTFLAYAQFNDTEVPLIEYSFYSDESLQYPKTVRVPYPKAGAVNPTVKFFVVNTDSLSSVTNATSIQITAPASMLIGDHYLCDVTWATQERISLQWLRRIQNYSVMDICDYDESSGRWNCLVARQHIEMSTTGWVGRFRPSEPHFTLDGNSFYKIISNEEGYRHICYFQIDKKDCTFITKGTWEVIGIEALTSDYLYYISNEYKGMPGGRNLYKIQLSDYTKVTCLSCELNPERCQYYSVSFSKEAKYYQLRCSGPGLPLYTLHSSVNDKGLRVLEDNSALDKMLQNVQMPSKKLDFIILNETKFWYQMILPPHFDKSKKYPLLLDVYAGPCSQKADTVFRLNWATYLASTENIIVASFDGRGSGYQGDKIMHAINRRLGTFEVEDQIEAARQFSKMGFVDNKRIAIWGWSYGGYVTSMVLGSGSGVFKCGIAVAPVSRWEYYDSVYTERYMGLPTPEDNLDHYRNSTVMSRAENFKQVEYLLIHGTADDNVHFQQSAQISKALVDVGVDFQAMWYTDEDHGIASSTAHQHIYTHMSHFIKQCFSLP,percentage of EdU-negative,MCF7; protein concentration 0.009 µM,24.2 ± 0.48%
same,percentage of EdU-negative,MCF7; [5],24.2 ± 0.77%
same,percentage of EdU-negative,MCF7; protein concentration 0.09 µM,26.5 ± 0.49%
same,percentage of EdU-negative,MCF7; [6],29.2 ± 1.1%
same,percentage of EdU-negative,hTERT-HMEC; protein concentration 0.009 µM,4.55 ± 0.2%
same,percentage of EdU-negative,hTERT-HMEC; [5],5.17 ± 1.7%
same,percentage of EdU-negative,hTERT-HMEC; protein concentration 0.09 µM,6.07 ± 0.24%
same,percentage of EdU-negative,hTERT-HMEC; [6],6.28 ± 0.073%
MEALMARGALTGPLRALCLLGCLLSHAAAAPSPIIKFPGDVAPKTDKELAVQYLNTFYGCPKESCNLFVLKDTLKKMQKFFGLPQTGDLDQNTIETMRKPRCGNPDVANYNFFPRKPKWDKNQITYRIIGYTPDLDPETVDDAFARAFQVWSDVTPLRFSRIHDGEADIMINFGRWEHGDGYPFDGKDGLLAHAFAPGTGVGGDSHFDDDELWTLGEGQVVRVKYGNADGEYCKFPFLFNGKEYNSCTDTGRSDGFLWCSTTYNFEKDGKYGFCPHEALFTMGGNAEGQPCKFPFRFQGTSYDSCTTEGRTDGYRWCGTTEDYDRDKKYGFCPETAMSTVGGNSEGAPCVFPFTFLGNKYESCTSAGRSDGKMWCATTANYDDDRKWGFCPDQGYSLFLVAAHEFGHAMGLEHSQDPGALMAPIYTYTKNFRLSQDDIKGIQELYGASPDIDLGTGPTPTLGPVTPEICKQDIVFDGIAQIRGEIFFFKDRFIWRTVTPRDKPMGPLLVATFWPELPEKIDAVYEAPQEEKAVFFAGNEYWIYSASTLERGYPKPLTSLGLPPDVQRVDAAFNWSKNKKTYIFAGDKFWRYNEVKKKMDPGFPKLIADAWNAIPDNLDAVVDLQGGGHSYFFKGAYYLKLENQSLKSVKFGSIKSDWLGC,percentage of EdU-negative,MCF7; [7],23.9 ± 0.91%
same,percentage of EdU-negative,MCF7; [8],26.7 ± 1.5%
same,percentage of EdU-negative,MCF7; [9],25.25 ± 0.19%
same,percentage of EdU-negative,MCF7; [10],27.8 ± 0.84%
same,percentage of EdU-negative,hTERT-HMEC; [7],4.84 ± 0.7%
same,percentage of EdU-negative,hTERT-HMEC; [8],5.59 ± 1.1%
same,percentage of EdU-negative,hTERT-HMEC; [9],9.87 ± 1.2%
same,percentage of EdU-negative,hTERT-HMEC; [10],4.97 ± 0.54%

# — the supplement of paper PMC11316812
